Results: patent publication US20230265151A1, “GIP/GLP1 CO-AGONIST COMPOUNDS” (priority 2020, published 2023)
Substitutions are numbered along the chain they refer to. *1 amine or outer side, *2 acyl side, *3 side chain or, on linkers, in order; H or OH if unused. Where no end group is shown, it is not given here. Side-chain parts run from the residue outwards. [ ]: non-standard residue; d: D form. The star is where a group is joined. Decanoyl(10-(4-HOOC-PhO)) = O=C(O)c1ccc(OCCCCCCCCCC(=O)*)cc1; αMePhe(2-F) = C[C@](N)(Cc1ccccc1F)C(=O)O; γGlu = O=C(O)[C@H](CCC(=O)[*:2])N[*:1]; αMeY = C[C@](N)(Cc1ccc(O)cc1)C(=O)O; αMeL = CC(C)C[C@](C)(N)C(=O)O; Nle = CCCC[C@H](N)C(=O)O; Orn = NCCC[C@H](N)C(=O)O; AEEA = NCCOCCOCC(=O)O; Aib = CC(C)(N)C(=O)O

T1: human glucose-dependent insulinotropic polypeptide (GIP) receptor (human) (UniProt P48546)
T1 sequence (looked up): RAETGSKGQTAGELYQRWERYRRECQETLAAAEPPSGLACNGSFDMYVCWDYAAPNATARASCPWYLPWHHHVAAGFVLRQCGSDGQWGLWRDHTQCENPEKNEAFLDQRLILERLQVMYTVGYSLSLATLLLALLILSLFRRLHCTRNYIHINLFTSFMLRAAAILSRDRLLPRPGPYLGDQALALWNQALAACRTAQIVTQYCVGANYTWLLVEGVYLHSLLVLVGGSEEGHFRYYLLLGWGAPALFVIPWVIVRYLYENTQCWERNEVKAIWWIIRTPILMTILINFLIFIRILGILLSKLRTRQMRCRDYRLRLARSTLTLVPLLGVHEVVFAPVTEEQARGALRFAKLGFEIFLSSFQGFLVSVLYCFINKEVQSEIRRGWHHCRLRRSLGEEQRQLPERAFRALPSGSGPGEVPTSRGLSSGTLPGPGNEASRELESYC

T2: human GIP receptor (human, UniProt P48546 22-466)
T2 sequence (looked up): T1 sequence (looked up)

T3: human GIP receptor (human, UniProt P48546 22-466)
T3 sequence (looked up): T1 sequence (looked up)

B1: Example 247 (peptide)
peptide: YXEGTXTSDXXIXLDXIAQXKFIXXLIKGGPSSGAPPPS
modifications: Y-Aib-EGT-αMeF(2F)-TSD-4Pal-Aib-I-αMeL-LD-Orn-IAQ-Aib-K((2-[2-(2-Amino-ethoxy)-ethoxy]-acetyl)2-(γ-Glu)-(10-(4-carboxyphenoxy)decanoyl))FI-(D-Glu)-αMeY-LIK((2-[2-(2-Amino-ethoxy)-ethoxy]-acetyl)2-(γ-Glu)-(10-(4-carboxyphenoxy)decanoyl))GGPSSGAPPPS-NH2
B2: Example 240 (peptide)
peptide: B1 peptide with X10Y
modifications: Y-Aib-EGT-αMeF(2F)-TSDY-Aib-I-αMeL-LD-Orn-IAQ-Aib-K((2-[2-(2-Amino-ethoxy)-ethoxy]-acetyl)2-(γ-Glu)-(10-(4-carboxyphenoxy)decanoyl))FI-(D-Glu)-αMeY-LIK((2-[2-(2-Amino-ethoxy)-ethoxy]-acetyl)2-(γ-Glu)-(10-(4-carboxyphenoxy)decanoyl))GGPSSGAPPPS-NH2
B3: Example 291 (peptide)
peptide: YXEGTXTSDXSIXLDXKAQXEFIXXLIEGGPSSGAPPPSK
modifications: Aib2, αMeF(2F)6, OMeY10, αMeL13, Orn16, Aib20, D-Glu24, αMeY25; K17 and K40: AEEA2-(γ-Glu)-CO-(CH2)10-CH3; C-terminal NH2
B4: Example 320 (peptide)
peptide: B1 peptide with X11S, I17K, K28E
modifications: Aib2, αMeF(2F)6, hTyr10, αMeL13, Orn16, Aib20, D-Glu24, αMeY25; K17 and K21: AEEA2-(γ-Glu)-(10-(4-carboxyphenoxy)decanoyl); C-terminal NH2
B5: Example 321 (peptide)
peptide: B1 peptide with X11S, I17K, K28E
modifications: Aib2, αMeF(2F)6, Nle10, αMeL13, Orn16, Aib20, D-Glu24, αMeY25; K17 and K21: AEEA2-(γ-Glu)-(10-(4-carboxyphenoxy)decanoyl); C-terminal NH2
B6: Example 323 (peptide)
peptide: B1 peptide with X11S, I17K, K28E
modifications: Aib2, αMeF(2F)6, hTyr10, αMeL13, Orn16, Aib20, D-Glu24, αMeY25; K17 and K21: AEEA2-(γ-Glu)-CO-(CH2)10-CH3; C-terminal NH2
B7: Example 310 (peptide)
peptide: B1 peptide with X11S, K21E, X24K
modifications: Aib2, αMeF(2F)6, hTyr10, αMeL13, Orn16, Aib20, αMeY25; K24 and K28: AEEA2-(γ-Glu)-(10-(4-carboxyphenoxy)decanoyl); C-terminal NH2
B8: Example 328 (peptide)
peptide: B1 peptide with X11S, I17K, K21E
modifications: Aib2, αMeF(2F)6, Nle10, αMeL13, Orn16, Aib20, D-Glu24, αMeY25; K17 and K28: AEEA2-(γ-Glu)-(10-(4-carboxyphenoxy)decanoyl); C-terminal NH2
B9: Example 327 (peptide)
peptide: B1 peptide with X11S, I17K, K21E
modifications: Aib2, αMeF(2F)6, hTyr10, αMeL13, Orn16, Aib20, D-Glu24, αMeY25; K17 and K28: AEEA2-(γ-Glu)-(10-(4-carboxyphenoxy)decanoyl); C-terminal NH2
B10: Example 332 (peptide)
peptide: B1 peptide with X11S
modifications: Aib2, αMeF(2F)6, hTyr10, αMeL13, Orn16, Aib20, D-Glu24, αMeY25; K21 and K28: AEEA2-(γ-Glu)-(10-(4-carboxyphenoxy)decanoyl); C-terminal NH2

The binders below were run against human glucagon-like peptide-1 (GLP-1) receptor (human) (UniProt P43220) (assay: cell-based or functional assay).

Binder	cAMP EC50	cAMP Emax
B1	1 nM	108%
B2	0.508 nM	98.5%

What follows are binders tested against human glucagon receptor (human) (UniProt P47871) (assay: cell-based or functional assay).

Binder	cAMP EC50
B1	> 9950 nM
B2	> 9950 nM

The binders below were run against T1, human glucose-dependent insulinotropic polypeptide (GIP) receptor (human) (assay: cell-based or functional assay).

Binder	cAMP EC50	cAMP Emax
B1	0.022 nM	103%
B2	0.0237 nM	99.1%

Each binder was assayed against human glucagon receptor (human, UniProt P47871 26-477) (assay: cell-based or functional assay).

Binder	cAMP EC50 (1.0% HSA)
B1	> 9950 nM
B2	> 9950 nM

These binders were tested against human GLP-1 receptor (human, UniProt P43220 24-463) (assay: cell-based or functional assay).

Binder	cAMP EC50 (1.0% HSA)	cAMP Emax (1.0% HSA)
B1	77.7 nM	109%
B2	150 nM	107%

The binders below were run against T2, human GIP receptor (assay: cell-based or functional assay).

Binder	cAMP EC50 (1.0% HSA)	cAMP Emax (1.0% HSA)
B1	4.24 nM	90.2%
B2	11.7 nM	87.2%

Molecular target: human GLP-1 receptor (human, UniProt P43220 24-463)
Test: cell-based or functional assay
Remark: another data set of the same source

Binder	cAMP EC50
B3	0.207 nM
B4	0.246 nM
B5	0.295 nM
B6	0.203 nM
B7	0.347 nM
B8	0.405 nM
B9	0.211 nM
B10	0.263 nM
Y[Aib]EGT[αMePhe(2-F)]TSD[Nle]SI[αMeL]LD[Orn]IAQ[Aib]EFIK([AEEA-AEEA-γGlu-Decanoyl(10-(4-HOOC-PhO))])[αMeY]LIK([AEEA-AEEA-γGlu-Decanoyl(10-(4-HOOC-PhO))])GGPSSGAPPPS-NH2 [Example 314]	0.673 nM

Molecular target: human glucagon receptor (human, UniProt P47871 26-477)
Test: cell-based or functional assay
Remark: another data set of the same source

Binder	cAMP EC50
B3	> 9950 nM
B4	> 9950 nM
B5	> 9950 nM
B6	> 9950 nM
B7	> 9950 nM
B8	> 9950 nM
B9	> 9950 nM
B10	> 9950 nM
Y[Aib]EGT[αMePhe(2-F)]TSD[Nle]SI[αMeL]LD[Orn]IAQ[Aib]EFIK([AEEA-AEEA-γGlu-Decanoyl(10-(4-HOOC-PhO))])[αMeY]LIK([AEEA-AEEA-γGlu-Decanoyl(10-(4-HOOC-PhO))])GGPSSGAPPPS-NH2 [Example 314]	> 9950 nM

What follows are binders tested against T3, human GIP receptor (assay: cell-based or functional assay).

Binder	cAMP EC50
B3	0.012 nM
B4	0.0144 nM
B5	0.0107 nM
B6	0.00793 nM
B7	0.025 nM
B8	0.00973 nM
B9	0.018 nM
B10	0.0109 nM
Y[Aib]EGT[αMePhe(2-F)]TSD[Nle]SI[αMeL]LD[Orn]IAQ[Aib]EFIK([AEEA-AEEA-γGlu-Decanoyl(10-(4-HOOC-PhO))])[αMeY]LIK([AEEA-AEEA-γGlu-Decanoyl(10-(4-HOOC-PhO))])GGPSSGAPPPS-NH2 [Example 314]	0.0216 nM
